According to article PMC4865804:

What was measured:
[1] = biological target: [ES] complex (FVIIa/TF_(PCPS)/FX) (UniProt P13726); test: enzyme inhibition kinetics (mixed-type fit, secondary plots); FX activation by FVIIa (10 pM) in complex with recombinant human TF (Innovin); FX 0.58-50 nM; ringhalexin 50-150 nM; 50 mM HEPES pH 7.4, 140 mM NaCl, 5 mM CaCl2, 1% BSA, 37 °C; FXa read by hydrolysis of 500 μM S-2222 at 405 nm
[2] = biological target: extrinsic tenase complex (FVIIa/TF_(PCPS)), the [E] complex (human) (UniProt P13726); test: as above
[3] = biological target: extrinsic tenase complex (FVIIa/TF_(PCPS)), the [E] complex (human) (UniProt P13726)

B1: ringhalexin (Ringhals extrinsic tenase complex inhibitor) (natural protein)
chain: RLCLSDYSIFSETIEICPEGHNYCFKKFPKGITRLPWVIRGCAATCPKPEAQVYVDCCARDKCNR
[1]
  Ki' (inhibitor constant for the [ES] complex): 152 nM
[2]
  Ki: 84.2 nM
[3]
  inhibition of FX activation by the reconstituted extrinsic tenase complex (FXa formed, measured by S-2222 hydrolysis); ringhalexin 100 pM to 3 μM, FX 30 nM: 124 nM
